{
  "source": "paper PMC11825280",
  "target": "rVSV-EBOV/Mayinga GP (EBOV/H.sap-tc/COD/76/Yambuku-Mayinga), thermolysin-cleaved (Ebola virus (EBOV)) (UniProt Q05320)",
  "sequence (Q05320 33-676)": "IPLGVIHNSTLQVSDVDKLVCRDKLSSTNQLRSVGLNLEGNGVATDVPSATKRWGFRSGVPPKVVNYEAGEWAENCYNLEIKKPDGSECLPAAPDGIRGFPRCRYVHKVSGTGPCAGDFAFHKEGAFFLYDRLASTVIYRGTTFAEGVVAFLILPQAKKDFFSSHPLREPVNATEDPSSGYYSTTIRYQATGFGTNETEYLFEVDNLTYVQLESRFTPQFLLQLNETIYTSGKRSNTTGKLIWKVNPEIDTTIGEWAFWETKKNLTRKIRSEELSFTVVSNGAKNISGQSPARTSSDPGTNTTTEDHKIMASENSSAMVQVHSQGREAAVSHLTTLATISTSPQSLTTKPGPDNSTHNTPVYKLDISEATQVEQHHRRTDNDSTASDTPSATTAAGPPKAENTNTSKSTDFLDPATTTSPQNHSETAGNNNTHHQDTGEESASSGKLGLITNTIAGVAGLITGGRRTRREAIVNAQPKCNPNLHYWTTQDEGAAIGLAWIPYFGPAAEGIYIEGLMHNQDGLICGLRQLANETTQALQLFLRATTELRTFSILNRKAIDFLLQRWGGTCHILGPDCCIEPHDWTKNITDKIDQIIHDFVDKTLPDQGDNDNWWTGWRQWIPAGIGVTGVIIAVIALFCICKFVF",
  "assay": "ELISA",
  "data": [
    {"substance": "soluble human NPC1 domain C (NPC1-C) (from UniProt O15118 23-1278) (domain or fragment)", "values": [
      {"measurement": "binding AUC", "value": 277}
    ]}
  ]
}
